# Target: SARS-CoV-2 spike protein receptor binding domain (SARS-CoV-2, UniProt P0DTC2)
# Assay: cryo-EM structure
row,Binder,binding result
1,"REGN10985 Fab (Fab, V domains shown) VH: EVQLVESGGGLVQPGRSLRLSCAASGFTFDDYAMHWVRQAPGKGLEWVSGISWNRGSIGYADSVKGRFTISRDNAKNSLYLQMSSLRAEDTALYYCAKDGERWDSVVVPSARNGMDVWGQGTTVTVSS VL: QSVLTQPPSVSGAPGQRVTISCTGSSSNIGAGYDVHWYQQLPGTAPKLLIYGNSNRPSGVPDRFSGSKSGTSASLAITGLQAEDEADYYCQSYDSSLSGSYVFGTGTKVTVL",binds
2,"REGN10989 Fab (Fab, V domains shown) VH: QVQLVQSGAEVKKPGASVKVSCKASGYIFTGYYMHWVRQAPGQGLEWMGWINPNSGGANYAQKFQGRVTLTRDTSITTVYMELSRLRFDDTAVYYCARGSRYDWNQNNWFDPWGQGTLVTVSS VL: QSALTQPASVSGSPGQSITISCTGTSSDVGTYNYVSWYQQHPGKAPKLMIFDVSNRPSGVSDRFSGSKSGNTASLTISGLQAEDEADYYCSSFTTSSTVVFGGGTKLTVL",binds

# — publication doi:10.1101/2021.03.10.434834 (bioRxiv, 2021)
